This test has as its target T1, cMyc-tagged Smurf2 (C716G), ligase inactive point mutant (UniProt Q9HAU4 1-748, limits assumed).
T1 construct: whole, on cells; Expressed from pCAGGS in HEK293T cells; co-immunoprecipitation from lysates; also called cMyc-Smurf2 (C716G); c-myc-Smurf2(C716G); not shown: cMyc tag
Put plainly: co-immunoprecipitation of TNF-R2 with utr-1 from HEK293T lysates without cotransfected TRAF2, anti-cMyc Western blot.

T1 sequence (Q9HAU4 whole entry C716G): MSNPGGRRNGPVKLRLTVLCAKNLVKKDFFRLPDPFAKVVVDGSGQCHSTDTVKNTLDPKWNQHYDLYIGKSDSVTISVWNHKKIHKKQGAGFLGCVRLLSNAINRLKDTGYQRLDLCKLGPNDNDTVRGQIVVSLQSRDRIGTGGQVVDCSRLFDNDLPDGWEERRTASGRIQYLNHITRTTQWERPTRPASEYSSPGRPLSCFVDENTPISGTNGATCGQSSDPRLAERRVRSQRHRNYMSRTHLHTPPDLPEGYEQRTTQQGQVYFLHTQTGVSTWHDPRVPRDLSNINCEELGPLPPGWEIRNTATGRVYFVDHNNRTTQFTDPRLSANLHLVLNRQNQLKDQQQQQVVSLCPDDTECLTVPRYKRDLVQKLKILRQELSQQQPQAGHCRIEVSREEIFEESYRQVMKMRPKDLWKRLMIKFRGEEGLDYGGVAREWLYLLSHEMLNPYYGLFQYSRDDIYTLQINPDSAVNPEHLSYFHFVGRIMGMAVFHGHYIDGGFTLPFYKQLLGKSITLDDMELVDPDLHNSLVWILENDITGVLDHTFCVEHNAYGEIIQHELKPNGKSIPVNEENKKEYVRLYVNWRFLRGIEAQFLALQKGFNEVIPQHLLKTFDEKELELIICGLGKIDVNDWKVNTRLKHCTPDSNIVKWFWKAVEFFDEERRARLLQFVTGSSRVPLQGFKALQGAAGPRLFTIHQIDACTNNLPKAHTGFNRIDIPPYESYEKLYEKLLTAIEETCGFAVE

B1: TNF receptor 2 (TNF-R2) wild type, pcDNAI-hTNF-R2 (receptor, UniProt P20333 23-461, looked up)
chain: LPAQVAFTPYAPEPGSTCRLREYYDQTAQMCCSKCSPGQHAKVFCTKTSDTVCDSCEDSTYTQLWNWVPECLSCGSRCSSDQVETQACTREQNRICTCRPGWYCALSKQEGCRLCAPLRKCRPGFGVARPGTETSDVVCKPCAPGTFSNTTSSTDICRPHQICNVVAIPGNASMDAVCTSTSPTRSMAPGAVHLPQPVSTRSQHTQPTPEPSTAPSTSFLLPMGPSPPAEGSTGDFALPVGLIVGVTALGLLIIGVVNCVIMTQVKKKPLCLQREAKVPHLPADKARGTQGPEQQHLLITAPSSSSSSLESSASALDRRAPTRNQPQAPGVEASGAGEARASTGSSDSSPGGHGTQVNVTCIVNVCSSSDHSSQCSSQASSTMGDTDSSPSESPKDEQVPFSKEECAFRSQLETPETLLGSTEEKPLPLGVPDAGMKPS
notes: also called TNF-R2 WT
Consider B1, for which the binding result is on record as “no binding”.

The values are drawn from patent publication US20060134737A1 (VLAAMS INTERUNIVERSITAIR INSTITUUT VOOR BIOTECHNOLOGIE VZW, published 2006).
